From the DeepSol protein solubility set come the findings set out here.

This data set is described as follows: soluble on expression in E. coli; label from the status in PepcDB or PDB records.
On to “MGSDKIHHHHHHMKEKLRLYHTNDLHSHFENWPKIVDYIEQKRKEHQSDGEETLVFDIGDHLDRFQFVTEATFGKANVDLLNRLHIDGAAIGNNEGITLPHEELAALYDHAEFPVIVSNLFDKNGNRPSWAVPYHIKSLKNGMSIAFLGVTVPYYPVYDKLGWTVTDALESIKETILEVKGQADIIVLLSHLGILDDQAVAEAVPEIDVILESHTHHLLEDGQVVNGVLLASAEKYGHYVGCVEITVDSVQRSINSKTASVQNMAEWTGESAETKAFLNEKEREAEEKLSDAVAELAQDAEVKWFEESELPLLLAYALKEWCETDISMVNSGVILGPLKAGPVTKLDLHRICPHPINPVAVRLTGEELKETIVHAASEQMEQLRIKGLGFRGEVMGKMVYAGVEVETKRLDDGITHVTRITLNGEDIEKHKQYSVAVLDMFTLGKLFPLIRDAAEKEYFMPEFLRDLLAWKLAQ”, for which the “soluble on expression in E. coli” value is “not soluble”.

“MTTRNPNRCPSHPGEILAESLEHLNASKTEIARILQISRQHLHGILKGERPVTAVTAARIGKLLGNGPALWLQLQANYDTWHALRDIDVSSIPTLTANEVDTQMEHSHS”: the “soluble on expression in E. coli” value was “not soluble”. The value for “SFNTYQHLLPETVRHLPDVKKQLAMVRPGLSMLSIFICLKGTKEDLKLQSTNYYVYFDTDMDKAMERYVSMPKEKAPEHIPLLFIAFPSSKDPTWEERFPDRSTMTALVPMAFEWFEEWQEEPKGKRGVDYETLKNAFVEASMSVIMKLFPQLEGKVESVTGGSPLTNQYYLAAPRGATYGADHDLARLHPHAMASIRAQTPIPNLYLTGQDIFTCGLMGALQGALLCSSAILKRNLYSDLQALGSKVKAQKKKM” was “soluble”. The value for “SNAMTQQDFRTKVDNTVFGVRATALIVQNHKLLVTKDKGKYYTIGGAIQVNESTEDAVVREVKEELGVKAQAGQLAFVVENRFEVDGVSYHNIEFHYLVDLLEDAPLTMQEDEKRQPCEWIDLDKLQNIQLVPVFLKTALPDWEGQLRHIHLEE” was “soluble”; that for “MGHHHHHHSHMRQRLLPSVTSLLLVALLFPGSSQARHVNHSATEALGELRERAPGQGTNGFQLLRHAVKRDLLPPRTPPYQGDVPPGIRNTICRMQQGICRLFFCHSGEKKRDICSDPWNRCCVSNTDEEGKEKPEMDGRSGI” was “not soluble”; that for “MKSRREQSIEEAIVANYLKMMIDNVNVWPRHFLRSEDVYCKNPWTLFVTRDPIILHFGRYFFVNRSVNSGLTDGCEYGCWRIIGRDRVIKSVTTGKILGLKKVYKFCETDRKPKSVFKFLEKEKRRVRDRRIWAMEEYRFASTWKQDYVICKIRRLYPQPFDYMLAQHIRGYYK” was “soluble”. As for “MAKILVLYYSMYGHIETMAHAVAEGAKKVDGAEVIIKRVPETMPPEIFAKAGGKTQNAPVATPQELADYDAIIFGTPTRFGNMSGQMRTFLDQTGGLWASGSLYGKLGSVFSSTGTGGGQEQTITSTWTTLAHHGMVIVPIGYAAQELFDVSQVRGGTPYGATTIAGGDGSRQPSQEELSIARYQGEYVAGLAVKLNG”, the “soluble on expression in E. coli” value is recorded as “not soluble”. For “MGSDKIHHHHHHMFIDKQTVERHFSKSAHLYDGVNHVQRKMAHRLVQLLDEKRRDAKDEPRAILDIGCGTGWLTRECLKSFPQATIDAVDLSKQMLEVAEKNVSSHPNVQFIQGDIEKMVREKPSAKTYDVIVANAVFQWLDKPTETVAQLRSWLKPNGLLLFSTFGPDTFYELHDSFQLAAKQLGIIDERRGLDYLSKTEWKRTLDGLFAELTIHEEKAIESYATVEQFLHTVKKMGATYSQSSRPLSKRYYQLMKEIYEQRYRTEDSIPATYDCLYVLCQA” the value was “not soluble”; for “MGSDKIHHHHHHMEVEIVERNAFTAVGKKRTFSVENDAQKEKISQFWQEVNANGDAERINELAEFATIDGILGVCQMNGDQMDYYIAIESELTPPADMEKLTIPASKWAIFKSVGPLPNAIQKVWEYIYGEWFQTCNYTHGNAPELEVYTEGDTTAVDYYSEVWIPVVEKD”, “not soluble”. For “MLVLGDAHATTPGRRRALFAAYRAANESVAVQAGDLMYYDLPVQTYFIGGNNEDFDAIDALRNGRVESDDVANATLLNSTAATVDGRRVAGLTGNYAPTQFDKPRAVLRGDRRRHFVRSDVEAVMDLDDIDIFVAHEAPNGLPVEEDYDVGCQHIDDILDALQPSLCLVGHHHQHAECDYGDTHVVGLEPAWESYYVVDPDTLAVTRHDTPPALEHHHHHH”, the “soluble on expression in E. coli” value is “not soluble”. The value for “MGSDKIHHHHHHMGTCLLSGLSEPSGGISEHLRGQTDQLGFRQFPHGLSGITQPCRGHRAPLAGLHPRYLRFSQSTPAHFVILTTESMTPTPEIPEPHYIGHRQRLKKKFFKCGLQALHDYEAVELLLSYAIPRKDIKSLSKDLLERFGSLKGIMDAELEELTAVRGISAHAAGLVRMVKEMSALYLQEKAREKPQISCTGELLDFCKTALGGLKDENFCVLYLDTQNRIIAFETIQKGIVNQAVVYPRQVIERALSHKSSALILVHNHPSGFVKPSDADIRLTRTITDTAKLLDIMVHDHLIIGENRFFSFREEGIMPL” was “not soluble”; that for “MLKIISGKYRNQIIPTAKNIKYRPSTGKLKEAIFSILTSGEFTGNKLFNENTHILDLFAGSGSLAFESLSRGAGFATLIDIDTSSLKIAEGFAKSLNIENNVNFVNINALNLPKATRHLFKPAYREGSKGDTEHSTAAYTLVREDASTGSTFKLPLEAKFGKMSNKSFDLVFIDPPYHKNIVPKVMKLLIKNNWLKDGAIIVIEMAKTDDYILDENIEIIREKLYGKSKLLVLSFTVIPAKAGIQ” was “not soluble”; that for “MGSDKIHHHHHHVTALSIIKEAEHSLQMLFNELEEIAYTNQVRVIEAFHKHRVREYYFYPSTGYGYGDSGRDALEDIFADIFGTEDALVRSQVVSGTHAISACLFALLRPGDELISLTGSPYDTLCRIIGHEEKSPGTLIDKGIKYSEVDLDERGKPDLTAIAAAIKDTSRMVLIQRSRGYKTRPPVDLDTIAAITKLVKARNPATIVMLDNCYGEFTAVQEPGHYGVDIIAGSLIKNPGGGLIPSGGYIAGNQDLIEQLAFHLTAPGLGKELGASLLDKRIMYQGLFLAPHTVLQALKGAVLLAYVFEEHGYEVFPRWNEKRSDIVQAVKLRDAAEVLRFCQEVQNASPVDSDVTLEYGELPAYRDKIVMAAGTFVQGSSIELSCDAPLRSPHCVFLQGGLSYEHCRFLLQRLLDRFLLANA” was “not soluble”. The value for “MSLEGNLEELVYFYPPSTTPPAVGKYTQLISDLLQSVSIVDALPRGAAQAGILCQDTKEVLESENTVLEIAIPRQDNLVIVGDIHGQFADMLSNVLSIQLNLNNTKATDGRGSPSTEIYKFLFLGDYVDRGPQSLEVITLLFALKVEYPEHIFLLRGNHEEAQTSRLYGFFQECKSKLEGTGDRGPASVDITSSTWLQYNTVFCWLPLAAVVACPSGMFFCTHGGLSPHTLSVPLLRSLRRNEYGMVDDFEDTFYTPTSRGGDDMLEGPGAKARLVIDGLLWSDPEDQVSGCQMNNRGCGFIFGPDVTRSFLDRNYSYGFPPSKRQLIGEMKPGMQFILRGHQCAREGYMWCHGGLVLTLFSAPNYCGMHGNKGAVALLRGQVQAGKDRVELEFNVYDTVVRGGSDNLVACLSPFAFAHYFSGDSEGHHHHHH” was “soluble”; that for “MSESSHVGLWNRCLEIIRDNVPESTYKTWFVPIVPLKYEDKTLIVQVPSQFFYEFLEDKFVDLLRKTLYKVIGDGTKLMYNVLVDKSSGATVNQESTTRSTAIPQSGLPRVDERKAPGLLRAPAVQDLDPHLNPNYNFETFIEGYSNKLSRSVAEAVAENPAKTVFNPLFLHGASGVGKTHLANAIGTRIKELYPDKRVLYVSAHLFQVQYTDSVRNNTTNDFINFYQTIDVLIIDDIQEFAGVTKTQNTFFHIFNHLHQNGKQLILTSDRAPVLLQGMEERLLTRFKWGMVAELEKPTVELRKNILRNKIHRDGLQFPSEVIDYIAENVNESVRDLEGIVISIMAHSTIYNKEIDLDLAQRIVRKVVRCETKAVTIDDIINVVCKHFDLESSAIHTKSRKREVVQARQVAMYLAKTHTDFSTSKIGKFIGNKDHATVLHACKTVKGQCEVDKGFRSDLENIETLLKKRNVSNGERLEHHHHHH” was “soluble”; that for “MDLYAVWGNPIAQSKSPLIQNKLAAQTHQTMEYIAKLGDLDAFEQQLLAFFEEGAKGCNITSPFKERAYQLADEYSQRAKLAEACNTLKKLDDGKLYADNTDGIGLVTDLQRLNWLRPNQHVLILGAGGATKGVLLPLLQAQQNIVLANRTFSKTKELAERFQPYGNIQAVSMDSIPLQTYDLVINATSAGLSGGTASVDAEILKLGSAFYDMQYAKGTDTPFIALCKSLGLTNVSDGFGMLVAQAAHSFHLWRGVMPDFVSVYEQLKKAMLLEHHHHHH” was “soluble”. For “MAHHHHHHMRPHTPAKVATTASDGATTTKTTSHPVLLGCGLNWASFVASHPFEVKELTSVLVGDGSDDDGVPEERDALVQAQLPVASVVTSGATLERVFTEAMVCASARAEVARKVQHIATVWCLHPSSEYVATLCWPMEGGESASTTTAVLKVQTEGGRAPLDLRAVSLHVVDRGSLVFHPEFTRCILAQGAERFMYYVPPNPLEATTALPFMRGLWYNGLFSLLELLRIGPQHVVMLFVLPNGDTRYTLDLAPESPAVPAPSSTHQQGSGALGSAASRNATASLYPWRRQSKVRRVIRSGAYVVVVRDDTAGVVESLQRACSYHGQNKRSTWLNDIFIHLMGQCSRRDILCSADAAASQPAEADKANDVRLLCIELVEKATGEVMAGCCGMAVGCAYHDYTMYTLRQTKDGLGTFLTKLIGEALQRCGYTLWYWGFCVEYMRHFERHFGAVDMPRDVFYRRWSAARDAAPECSIDAYLRSHKGMVPYYEGTSALVKSKP” the value was “not soluble”. For the sequence “MAKTLGLHILADLYGVDADKIDRVEDIRELLEGAVKYANLTKISSHYYQFQPHGATGVVLLAESHISIHTWPEHGLATVDVYTCGDPSKAYRAMDYIITQLNPKRIDKQVHERGIVEEESNQSEAEKLRSILLQV”, the “soluble on expression in E. coli” value is reported as “soluble”.

Take “MKKHTLALCLAAILAPAAHAAEIKVEDLTWKAITFGQSTDMNFGSTILPEKVGVNQVTVNGEAVAAGKLASTFTIESRGGKLANSHEGLTFYYTELPTDVNFTLSADVVLEQLGPETGATPNRQEGAGLMVRDILGAERLVPQPEGHEEFPSASNMVMNLMRSHTRANDGMTNINASFREGVYQPWGTPGNRLSRVDYVEGVPYGTAETYRMTLTRTNDGFKVSYRNGEKFVEQAVKGANANIVEMQNSDSQYVGFFASRNAKMTVSNVDLQLAAADTVDAPKYAAKQGELVFQIASSPRSATKEYPVQARANYSGEFEVLHNDKVVAKQTVTAGELFSQWLTLDSGANQMEVRFTAIDGPNKETQAHRYSVDVVSLPDPMTL”: the “soluble on expression in E. coli” value is recorded as “not soluble”. For “MFAFSKGPAGSSTYDRVAQKFQDGYEKMRAAIEMDELTKHAGSIQEKLRTAELYKEARSLLKEANEFNIMDIPETRRSEIRDKRQNMMKLEKSAQDRLIAICNEVDPNVKQSRSATVGPSRPASAARVTPRPTRATAPASLPMHQNPVNRAALLNGVDKVIGERLLDEVLDNTGVRMDDVAGCHSAKAALEEAVILPALNPNLFKGLRQPVKGILLFGPPGNGKTLLAKAVAGESKQMFFNISASSLTSKWVGDSEKTIRGLFQIARNAQPSIIFIDEIDSILCERSEKDAEVSRRMKTEFLVQFDGATSSADDRILVIGATNRPHELDDAVLRRFPKRIMLNLPDEEARKELITKTLKKHNMMDGLISSDIRYIASNTSGFSNSDLVALCKEAAMVPIREIDRSKLSMTDGEKIRKIRASDFDTALRTIRPSTSQKIMSKLSDFSRSFGC” the value was “not soluble”; for “MEEMRDNDVPVQQALFDMGPDEEVGYRVPIACQVAGITYRQLDYWARTKLVEPTIRTARGSGSQRLYSFKDILVLKIVKRLLDTGISLQNIRLAVDKLRNRGVDDLAEITLVSDGTTVYECRSNEEVIDLLGGGQGVFGIAVPGIVRELTGTISSFPSEKISDFLSNSPAAGGIDELAARRLRKTS”, “not soluble”.
